In US20230143604A1, “QW DOSING OF GIP RECEPTOR AGONIST PEPTIDE COMPOUNDS AND USES THEREOF” (TAKEDA PHARMACEUTICAL COMPANY LIMITED, priority 2020, published 2023):
Starred links: 1 amine or outer side, 2 acyl side, 3 side chain; linkers in the order of their positions; H or OH if unused. Non-standard residues stand in square brackets, D forms with d. Groups on a side chain read outwards from the residue. No end group written: not given here. *: point of attachment. C20 diacid = O=C(O)CCCCCCCCCCCCCCCCCCC(=O)*; C18 diacid = O=C(O)CCCCCCCCCCCCCCCCC(=O)*; C17 diacid = O=C(O)CCCCCCCCCCCCCCCC(=O)*; γGlu = O=C(O)[C@H](CCC(=O)[*:2])N[*:1]; NMeY = CN[C@@H](Cc1ccc(O)cc1)C(=O)O; AEEA = NCCOCCOCC(=O)O; Aib = CC(C)(N)C(=O)O

T1: full-length human GIPR with an N-terminal FLAG tag (human, UniProt P48546 22-466)
T1 sequence (looked up): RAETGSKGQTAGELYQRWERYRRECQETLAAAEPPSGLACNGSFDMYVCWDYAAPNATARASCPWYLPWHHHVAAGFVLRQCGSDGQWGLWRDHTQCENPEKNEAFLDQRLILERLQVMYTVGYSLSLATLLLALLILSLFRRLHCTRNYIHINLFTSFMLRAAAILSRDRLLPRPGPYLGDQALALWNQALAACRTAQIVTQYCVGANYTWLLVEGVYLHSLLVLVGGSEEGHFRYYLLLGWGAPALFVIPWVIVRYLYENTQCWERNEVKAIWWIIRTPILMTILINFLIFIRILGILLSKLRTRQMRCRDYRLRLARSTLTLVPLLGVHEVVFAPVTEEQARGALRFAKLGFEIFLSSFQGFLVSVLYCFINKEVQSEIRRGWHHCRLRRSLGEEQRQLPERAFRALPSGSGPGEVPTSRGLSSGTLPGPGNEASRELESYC


target: full-length human GLP-1R with an N-terminal FLAG tag (human, UniProt P43220 24-463); assay: cell-based or functional assay

First: YXEGTFISDYSIALDSXAQXDFVNWLLAQKG (N-methyl Tyr 1; Aib at 2,20; Lys(G5-C18 diacid) at 17; C-terminal OH) [Compound No. 78]
Second: YXEGTFISDYSIAXDRXAQXDFVNWLLAQQG (N-methyl Tyr 1; Aib at 2,17,20; Lys(G5-C18 diacid) at 14; C-terminal OH) [Compound No. 82]
The “Human GLP1R cAMP EC50, HEK293T” value of the first is 1.5-fold higher: 26.9 nM for the first, 17.4 nM for the second.

First: YXEGTFISDYSIXLDSXAQXDFVNWLLAQKG (N-methyl Tyr 1; Aib at 2,13,20; Lys(G5-C18 diacid) at 17; C-terminal OH) [Compound No. 77]
Second: [NMeY][Aib]EGTFISDYSIAK([2OEGgEgE-C17 diacid])DR[Aib]AQ[Aib]NFVNWLLAQR-OH [Compound No. 7]
The “Human GLP1R cAMP EC50, HEK293T” value of the first is 35-fold lower: 17 nM for the first, 589 nM for the second.

First: [NMeY][Aib]EGTFISDYSI[Aib]LDR[Aib]K([2OEGgEgE-C18 diacid])Q[Aib]DFVNWLLAQSPG-OH [Compound No. 87]
Second: [NMeY][Aib]EGTFISDYSI[Aib]LDR[Aib]AQ[Aib]K([2OEGgEgE-C18 diacid])FVNWLLAQSPG-OH [Compound No. 85]
The “Human GLP1R cAMP EC50, HEK293T” value of the first is higher: greater than 1000 nM for the first, 41.7 nM for the second.

First: YXEGTFISDYSIXXDRXAQXDFVEWLLAQRG (N-methyl Tyr 1; Aib at 2,13,17,20; Lys(G5-C18 diacid) at 14; C-terminal OH) [Compound No. 108]
Second: YXEGTFISDYSIXXDRXAQXNFVNWLLAQSPSSGAPPPS (N-methyl Tyr 1; Aib at 2,13,17,20; Lys(G5-C17 diacid) at 14; C-terminal OH) [Compound No. 95]
The “Human GLP1R cAMP EC50, HEK293T” value of the first is 2.4-fold higher: 41.7 nM for the first, 17.4 nM for the second.

First: YXEGTFISDYSIXXDRXAQXNFVNWLLAQSPSSGAPPPS (N-methyl Tyr 1; Aib at 2,13,17,20; Lys(G5-C18 diacid) at 14; C-terminal OH) [Compound No. 96]
Second: [NMeY][Aib]EGTFISDYSIAK([G4gE-C18 diacid])DR[Aib]AQ[Aib]DFVNWLLAQKG-OH [Compound No. 80]
The “Human GLP1R cAMP EC50, HEK293T” value of the first is 12-fold lower: 9.55 nM for the first, 115 nM for the second.

Going from [NMeY][Aib]EGTFISDYSI[Aib]LDR[Aib]AQ[Aib]K([2OEGgEgE-C18 diacid])FVNWLLAQSPSSGAPPPS-NH2 [Compound No. 90] to [NMeY][Aib]EGTFISDYSI[Aib]LDR[Aib]AQ[Aib]K([AEEA-γGlu-AEEA-γGlu-C18 diacid])FVNWLLAQSPSSGAPPPS-NH2 [Compound No. 92], the “Human GLP1R cAMP EC50, HEK293T” value falls from 72.4 nM to 36.3 nM (2-fold).

Going from [NMeY][Aib]EGTFISDYSI[Aib]LDR[Aib]AQ[Aib]K([AEEA-AEEA-γGlu-C18 diacid])FVNWLLAQSPSSGAPPPS-NH2 [Compound No. 91] to [NMeY][Aib]EGTFISDYSIAK([GGPAPAP-C18 diacid])DR[Aib]AQ[Aib]DFVNWLLAQSPSSGAPPPS-OH [Compound No. 105], the “Human GLP1R cAMP EC50, HEK293T” value rises from 30.9 nM to 562 nM (18-fold).

[NMeY][Aib]EGTFISDYSI[Aib]LDR[Aib]K([2OEGgEgE-C18 diacid])Q[Aib]NFVNWLLAQRG-OH [Compound No. 74] and [NMeY][Aib]EGTFISDYSIALDR[Aib]K([AEEA-AEEA-γGlu-γGlu-C20 diacid])Q[Aib]NFVNWLLAQSPSSGAPPPS-NH2 [Compound No. 99] are within 1.5-fold of each other in “Human GLP1R cAMP EC50, HEK293T” value: 468 nM for the first, 479 nM for the second.

First: [NMeY][Aib]EGTFISDYSI[Aib]LDR[Aib]AQ[Aib]NFVNWLLAQK([2OEGgEgE-C20 diacid])PSSGAPPPS-NH2 [Compound No. 69]
Second: [NMeY][Aib]EGTFISDYSI[Aib]LDR[Aib]AQ[Aib]K([AEEA-AEEA-γGlu-γGlu-C20 diacid])FVNWLLAQRPSSGAPPPS-NH2 [Compound No. 101]
The “Human GLP1R cAMP EC50, HEK293T” value of the first is 2.6-fold higher: 102 nM for the first, 39.8 nM for the second.

target: T1, full-length human GIPR with an …; assay: cell-based or functional assay

YXEGTFISDYSIALDSXAQXDFVNWLLAQKG (N-methyl Tyr 1; Aib at 2,20; Lys(G5-C18 diacid) at 17; C-terminal OH) [Compound No. 78] and YXEGTFISDYSIAXDRXAQXDFVNWLLAQQG (N-methyl Tyr 1; Aib at 2,17,20; Lys(G5-C18 diacid) at 14; C-terminal OH) [Compound No. 82] are the same in “Human GIPR cAMP EC50, HEK293T” value: 0.0003 nM for the first, 0.0003 nM for the second.

YXEGTFISDYSIXLDSXAQXDFVNWLLAQKG (N-methyl Tyr 1; Aib at 2,13,20; Lys(G5-C18 diacid) at 17; C-terminal OH) [Compound No. 77] and [NMeY][Aib]EGTFISDYSIAK([2OEGgEgE-C17 diacid])DR[Aib]AQ[Aib]NFVNWLLAQR-OH [Compound No. 7] are within 1.5-fold of each other in “Human GIPR cAMP EC50, HEK293T” value: 0.0003 nM for the first, 0.0004 nM for the second.

[NMeY][Aib]EGTFISDYSI[Aib]LDR[Aib]K([2OEGgEgE-C18 diacid])Q[Aib]DFVNWLLAQSPG-OH [Compound No. 87] and [NMeY][Aib]EGTFISDYSI[Aib]LDR[Aib]AQ[Aib]K([2OEGgEgE-C18 diacid])FVNWLLAQSPG-OH [Compound No. 85] are the same in “Human GIPR cAMP EC50, HEK293T” value: 0.0004 nM for the first, 0.0004 nM for the second.

Going from YXEGTFISDYSIXXDRXAQXDFVEWLLAQRG (N-methyl Tyr 1; Aib at 2,13,17,20; Lys(G5-C18 diacid) at 14; C-terminal OH) [Compound No. 108] to YXEGTFISDYSIXXDRXAQXNFVNWLLAQSPSSGAPPPS (N-methyl Tyr 1; Aib at 2,13,17,20; Lys(G5-C17 diacid) at 14; C-terminal OH) [Compound No. 95], the “Human GIPR cAMP EC50, HEK293T” value rises from 0.0002 nM to 0.0004 nM (2-fold).

YXEGTFISDYSIXXDRXAQXNFVNWLLAQSPSSGAPPPS (N-methyl Tyr 1; Aib at 2,13,17,20; Lys(G5-C18 diacid) at 14; C-terminal OH) [Compound No. 96] and [NMeY][Aib]EGTFISDYSIAK([G4gE-C18 diacid])DR[Aib]AQ[Aib]DFVNWLLAQKG-OH [Compound No. 80] are the same in “Human GIPR cAMP EC50, HEK293T” value: 0.0003 nM for the first, 0.0003 nM for the second.

[NMeY][Aib]EGTFISDYSI[Aib]LDR[Aib]AQ[Aib]K([2OEGgEgE-C18 diacid])FVNWLLAQSPSSGAPPPS-NH2 [Compound No. 90] and [NMeY][Aib]EGTFISDYSI[Aib]LDR[Aib]AQ[Aib]K([AEEA-γGlu-AEEA-γGlu-C18 diacid])FVNWLLAQSPSSGAPPPS-NH2 [Compound No. 92] are within 1.5-fold of each other in “Human GIPR cAMP EC50, HEK293T” value: 0.0005 nM for the first, 0.0006 nM for the second.

[NMeY][Aib]EGTFISDYSI[Aib]LDR[Aib]AQ[Aib]K([AEEA-AEEA-γGlu-C18 diacid])FVNWLLAQSPSSGAPPPS-NH2 [Compound No. 91] and [NMeY][Aib]EGTFISDYSIAK([GGPAPAP-C18 diacid])DR[Aib]AQ[Aib]DFVNWLLAQSPSSGAPPPS-OH [Compound No. 105] are the same in “Human GIPR cAMP EC50, HEK293T” value: 0.0005 nM for the first, 0.0005 nM for the second.

[NMeY][Aib]EGTFISDYSI[Aib]LDR[Aib]K([2OEGgEgE-C18 diacid])Q[Aib]NFVNWLLAQRG-OH [Compound No. 74] and [NMeY][Aib]EGTFISDYSIALDR[Aib]K([AEEA-AEEA-γGlu-γGlu-C20 diacid])Q[Aib]NFVNWLLAQSPSSGAPPPS-NH2 [Compound No. 99] are the same in “Human GIPR cAMP EC50, HEK293T” value: 0.0005 nM for the first, 0.0005 nM for the second.

[NMeY][Aib]EGTFISDYSI[Aib]LDR[Aib]AQ[Aib]NFVNWLLAQK([2OEGgEgE-C20 diacid])PSSGAPPPS-NH2 [Compound No. 69] and [NMeY][Aib]EGTFISDYSI[Aib]LDR[Aib]AQ[Aib]K([AEEA-AEEA-γGlu-γGlu-C20 diacid])FVNWLLAQRPSSGAPPPS-NH2 [Compound No. 101] are within 1.5-fold of each other in “Human GIPR cAMP EC50, HEK293T” value: 0.0008 nM for the first, 0.0009 nM for the second.
